Source: publication PMC5218472 (PLoS Biology, 2017)
Positions count from the first letter of the chain named. Each block holds one molecule with its values, some of them ahead of it. Residues, ends and D or L forms follow the SMILES beside them. No end group written: not given here. *: point of attachment. NH(β-GlcNAc) = CC(=O)N[C@@H]1[C@@H](O)[C@H](O)[C@@H](CO)O[C@H]1N*; αGalNAc = CC(=O)N[C@@H]1[C@@H](O)[C@@H](O)[C@@H](CO)O[C@@H]1*

Experiments:
ADAM17 = system: T1, ADAM17; assay: In vitro cleavage assay of IL-6R (glyco)peptides with recombinant ADAM17; settings: human, isolated enzyme, pH 9
T1 construct: catalytic domain (aa Pro-18 to Val-477) of ADAM17; purchased Enzo Life Sciences GmbH (Lörrach, Germany)
Method: Fig 7 The N- and O-glycosylated sequon adjacent to the cleavage site is of minor importance for IL-6R cleavage. (A) Amino-acid sequence of the two unglycosylated peptides 1(QD) and 2(QA). Peptides were incubated either with or without recombinant ADAM17 for 16 h at 37°C, and the amount of cleaved peptide was analyzed by reversed-phase (RP) chromatography. (B) Amino-acid sequence of the two glycopeptides 3(QD) and 4(QA), which have a GlcNAc attached to the amino-acid residue corresponding to Asn-350 of the IL-6R. Cleavage was determined as described in panel (A). (C) Amino-acid sequence of the two glycopeptides 5(QD) and 6(QA), which have a biantennary N-glycan attached to the amino-acid residue corresponding to Asn-350 of the IL-6R. Cleavage was determined as described in panel (A). (D) Amino-acid sequence of the two glycopeptides 7(QD) and 8(QA), which have a GalNAc attached to the amino-acid residue corresponding toThr-352 of the IL-6R. Cleavage was determined as described in panel (A). (E) Amino-acid sequence of the two glycopeptides 9(QD) and 10(QA), which have a biantennary N-glycan attached to the amino-acid residue corresponding to Asn-350 and a GalNAc attached to the amino-acid residue corresponding toThr-352 of the IL-6R. Cleavage was determined as described in panel (A). All data shown are the mean ± SD from three independent experiments (*p < 0.05, **p < 0.01, ***p < 0.001, compared to the untreated peptide; ^§p < 0.05, compared to the cleaved nonglycosylated peptide).
Two 1.5 ml reaction tubes were filled with 50 μl peptide (50 μM) solved in 25 mM Hepes (pH 9.0), and 0.5 μl of the recombinant catalytic domain of ADAM17 was added to one of the reaction tubes, whereas the other sample remained untreated. All samples were incubated for 16 h at 37°C. Afterwards, 1,150 μl 0.1% TFA was added to each sample, and the peptides were separated on a reverse phase chromatography column (Multo High Bio-200-C18) from Chromatographie Service (Langerwehe, Germany) using a linear gradient elution with a binary solvent system and a flow rate of 1 ml/min. Solvent A consisted of 0.1% TFA, and solvent B consisted of 100% ACN. After peak integration, peak areas for cleaved and noncleaved peptides were determined.

[1] = in vitro peptide cleavage, 16 h, RP chromatography; settings: glycan gained
ADAM10 = assay: Ionomycin-induced ADAM10-mediated IL-6R ectodomain shedding in transiently transfected HEK293 cells, sIL-6R ELISA; type: cell-based, human; settings: normalised to PVQD Iono = 100, mean of n = 3
Source text: Analysis of IL-6R ectodomain shedding in transiently transfected HEK293 cells or stably transduced Ba/F3-gp130 cell lines by ADAM10 and ADAM17 has been described elsewhere. Analysis of IL-6R proteolysis by CG has been described previously.
The sandwich ELISA, which detects sIL-6R as well as ds-sIL-6R (4-11/Baf227 antibodies) and can be used to quantify total sIL-6R serum levels, was described previously. To specifically detect ds-sIL-6R (either recombinant or in human serum), a similar approach was used (ds6R/Baf227). Both sandwich ELISAs were performed with streptavidin-horseradish peroxidase (R&D Systems, Minneapolis, Minnesota, US) and the peroxidase substrate BM blue POD (Roche, Mannheim, Germany). The enzymatic reaction was stopped by addition of 1.8 M sulfuric acid, and the absorbance read at 450 nm on a Tecan rainbow reader (Tecan, Crailsheim, Germany).
Supplementary file pbio.2000080.s004.tif: S4 Fig Mutation of Val-356 is sufficient to block ADAM10-mediated proteolysis of the IL-6R and the Asp358Ala variant. (A) HEK293 cells were transiently transfected with Expression plasmids encoding the wildtype IL-6R (PV) or the double mutants (IE, DG) as indicated. Cells were either treated with 1 μM ionomycin for 1 h or DMSO as vehicle control. sIL-6R was precipitated from the supernatant with concanavalin A-covered Sepharose beads, and cells were lysed. Both were analyzed via Western blot, and β-actin served as loading control. One out of three experiments with similar outcome is shown. (B, C) The experiment was performed as described under (A), but sIL-6R generation was analyzed via ELISA. In (B), the amount of sIL-6R generated after ionomycin-stimulation of the wildtype IL-6R (PV) was set to 100%, and all other values were calculated accordingly. In (C), the amount of sIL-6R without stimulation was considered as constitutive shedding and set to 1 and the increase of sIL-6R was calculated. Data shown are the mean ± SD from at least three independent experiments (*p<0.05, ns = no significant difference). (D-F) HEK293 cells were transiently transfected with expression plasmids encoding the wildtype IL-6R (PV) or the single mutants (DV, IV, PE, PG) as indicated. The experiments were performed as described in (A) to (C). (G) ADAM10-mediated proteolysis of the IL-6R variants depicted in Fig 4I was analyzed as described in (B). (H) Equal numbers of Ba/F3-gp130-IL-6R_DG cells were incubated for 48 h with increasing amounts (0–100 ng/ml) of either IL-6 or Hyper-IL-6. One representative experiment out of three performed is shown (mean ± SD, biological triplicates). (TIF) Click here for additional data file.

[2] = control: unglycosylated synthetic peptide 1(QD)
[3] = control: unglycosylated synthetic peptide 2(QA), Asp358Ala

- remaining at 16 h, 50 μM (ADAM17): 86%
Molecule: NILFRDSANATSLPVQDSSSVPLP [1(QD)]

- remaining at 16 h, 50 μM (ADAM17): 0.4%
Molecule: CC[C@H](C)[C@H](NC(=O)[C@@H](N)CC(N)=O)C(=O)N[C@@H](CC(C)C)C(=O)N[C@@H](Cc1ccccc1)C(=O)N[C@@H](CCCNC(=N)N)C(=O)N[C@@H](CC(=O)O)C(=O)N[C@@H](CO)C(=O)N[C@@H](C)C(=O)N[C@@H](CC(=O)N[C@@H]1O[C@H](CO)[C@@H](O)[C@H](O)[C@H]1NC(C)=O)C(=O)N[C@@H](C)C(=O)N[C@H](C(=O)N[C@@H](CO)C(=O)N[C@@H](CC(C)C)C(=O)N1CCC[C@H]1C(=O)N[C@H](C(=O)N[C@@H](CCC(N)=O)C(=O)N[C@@H](C)C(=O)N[C@@H](CO)C(=O)N[C@@H](CO)C(=O)N[C@@H](CO)C(=O)N[C@H](C(=O)N1CCC[C@H]1C(=O)N[C@@H](CC(C)C)C(=O)N1CCC[C@H]1C(=O)O)C(C)C)C(C)C)[C@@H](C)O [4(QA)] (H-NILFRDSAD(NH(β-GlcNAc))ATSLPVQASSSVPLP-OH)

- remaining at 16 h, 50 μM (ADAM17): 91.4%
Molecule: CC[C@H](C)[C@H](NC(=O)[C@@H](N)CC(N)=O)C(=O)N[C@@H](CC(C)C)C(=O)N[C@@H](Cc1ccccc1)C(=O)N[C@@H](CCCNC(=N)N)C(=O)N[C@@H](CC(=O)O)C(=O)N[C@@H](CO)C(=O)N[C@@H](C)C(=O)N[C@@H](CC(=O)N[C@@H]1O[C@H](CO)[C@@H](O)[C@H](O)[C@H]1NC(C)=O)C(=O)N[C@@H](C)C(=O)N[C@H](C(=O)N[C@@H](CO)C(=O)N[C@@H](CC(C)C)C(=O)N1CCC[C@H]1C(=O)N[C@H](C(=O)N[C@@H](CCC(N)=O)C(=O)N[C@@H](CC(=O)O)C(=O)N[C@@H](CO)C(=O)N[C@@H](CO)C(=O)N[C@@H](CO)C(=O)N[C@H](C(=O)N1CCC[C@H]1C(=O)N[C@@H](CC(C)C)C(=O)N1CCC[C@H]1C(=O)O)C(C)C)C(C)C)[C@@H](C)O [3(QD)] (H-NILFRDSAD(NH(β-GlcNAc))ATSLPVQDSSSVPLP-OH)

- remaining at 16 h, 50 μM (ADAM17): 0.93%
Molecule: NILFRDSANATSLPVQASSSVPLP [2(QA)]

- remaining at 16 h, 50 μM (ADAM17): 91%
Molecule: CC[C@H](C)[C@H](NC(=O)[C@@H](N)CC(N)=O)C(=O)N[C@@H](CC(C)C)C(=O)N[C@@H](Cc1ccccc1)C(=O)N[C@@H](CCCNC(=N)N)C(=O)N[C@@H](CC(=O)O)C(=O)N[C@@H](CO)C(=O)N[C@@H](C)C(=O)N[C@@H](CC(N)=O)C(=O)N[C@@H](C)C(=O)N[C@H](C(=O)N[C@@H](CO)C(=O)N[C@@H](CC(C)C)C(=O)N1CCC[C@H]1C(=O)N[C@H](C(=O)N[C@@H](CCC(N)=O)C(=O)N[C@@H](CC(=O)O)C(=O)N[C@@H](CO)C(=O)N[C@@H](CO)C(=O)N[C@@H](CO)C(=O)N[C@H](C(=O)N1CCC[C@H]1C(=O)N[C@@H](CC(C)C)C(=O)N1CCC[C@H]1C(=O)O)C(C)C)C(C)C)[C@@H](C)O[C@H]1O[C@H](CO)[C@H](O)[C@H](O)[C@H]1NC(C)=O [7(QD)] (H-NILFRDSANAT(αGalNAc)SLPVQDSSSVPLP-OH)

B1: IL-6R / sIL-6R (interleukin-6 receptor): peptide 3(QD), GlcNAc at Asn-350 (protein)
parent chain: MLAVGCALLAALLAAPGAALAPRRCPAQEVARGVLTSLPGDSVTLTCPGVEPEDNATVHWVLRKPAAGSHPSRWAGMGRRLLLRSVQLHDSGNYSCYRAGRPAGTVHLLVDVPPEEPQLSCFRKSPLSNVVCEWGPRSTPSLTTKAVLLVRKFQNSPAEDFQEPCQYSQESQKFSCQLAVPEGDSSFYIVSMCVASSVGSKFSKTQTFQGCGILQPDPPANITVTAVARNPRWLSVTWQDPHSWNSSFYRLRFELRYRAERSKTFTTWMVKDLQHHCVIHDAWSGLRHVVQLRAQEEFGQGEWSEWSPEAMGTPWTESRSPPAENEVSTPMQALTTNKDDDNILFRDSANATSLPVQDSSSVPLPTFLVAGGSLAFGTLLCIAIVLRFKKTWKLRALKEGKTSMHPPYSLGQLVPERPRPTPVLVPLISPPVSPSSLGSDNTSSHNRPDARDPRSPYDISNTDYFFPR
- other: proteolytic processing, other: percent peptide intact [1, 2]: decreases

B2: IL-6R / sIL-6R (interleukin-6 receptor): peptide 7(QD), GalNAc at Thr-352 (protein)
parent chain: B1 parent chain
- other: proteolytic processing, other: percent peptide intact [1, 2]: decreases

B3: IL-6R / sIL-6R (interleukin-6 receptor): peptide 9(QD), biantennary N-glycan plus GalNAc (protein)
parent chain: B1 parent chain
- other: proteolytic processing, other: percent peptide intact [1, 2]: abolishes

B4: IL-6R / sIL-6R (interleukin-6 receptor): peptide 5(QD), biantennary N-glycan at Asn-350 (protein)
parent chain: B1 parent chain
- other: proteolytic processing, other: percent peptide intact [1, 2]: abolishes

B5: IL-6R / sIL-6R (interleukin-6 receptor): peptide 4(QA), GlcNAc at Asn-350 (protein)
parent chain: B1 parent chain with D358A
- other: proteolytic processing, other: percent peptide intact [1, 3]: no change, 0.4% ± 0.7% vs 1.0% ± 1.0%

B6: IL-6R / sIL-6R (interleukin-6 receptor): peptide 6(QA), biantennary N-glycan at Asn-350 (protein)
parent chain: B1 parent chain with D358A
- other: proteolytic processing, other: percent peptide intact [1, 3]: no change

B7: IL-6R / sIL-6R (interleukin-6 receptor): peptide 10(QA), biantennary N-glycan plus GalNAc (protein)
parent chain: B1 parent chain with D358A
- other: proteolytic processing, other: percent peptide intact [1, 3]: decreases, 14.7% ± 6.3% vs 1.0% ± 1.0%

B8: IL-6R / sIL-6R (interleukin-6 receptor): peptide 8(QA), GalNAc at Thr-352 (protein)
parent chain: B1 parent chain with D358A
- other: proteolytic processing, other: percent peptide intact [1, 3]: decreases, 10.8% ± 5.4% vs 1.0% ± 1.0%

B9: PVQA: IL-6R Asp358Ala variant (protein, UniProt P08887 20-468, looked up, variant D358A)
Interleukin-6 receptor …: LAPRRCPAQEVARGVLTSLPGDSVTLTCPGVEPEDNATVHWVLRKPAAGSHPSRWAGMGRRLLLRSVQLHDSGNYSCYRAGRPAGTVHLLVDVPPEEPQLSCFRKSPLSNVVCEWGPRSTPSLTTKAVLLVRKFQNSPAEDFQEPCQYSQESQKFSCQLAVPEGDSSFYIVSMCVASSVGSKFSKTQTFQGCGILQPDPPANITVTAVARNPRWLSVTWQDPHSWNSSFYRLRFELRYRAERSKTFTTWMVKDLQHHCVIHDAWSGLRHVVQLRAQEEFGQGEWSEWSPEAMGTPWTESRSPPAENEVSTPMQALTTNKDDDNILFRDSANATSLPVQASSSVPLPTFLVAGGSLAFGTLLCIAIVLRFKKTWKLRALKEGKTSMHPPYSLGQLVPERPRPTPVLVPLISPPVSPSSLGSDNTSSHNRPDARDPRSPYDISNTDYFFPR
- sIL-6R shedding, Figure S4G, mean (ADAM10; treatment DMSO): 109.87
- sIL-6R shedding, Figure S4G, mean (ADAM10; treatment Iono): 197.873
